# Columns and labels:
# Experiment in all cases: BLI
# v3B_Δ18 = biological target: v3B_Δ18
# v3B_Δ15 = biological target: v3B_Δ15
# v3B_Δ9 = biological target: v3B_Δ9
binder,measurement,setting,value
"MPE8 antigen-binding fragment (Fab) (Fab, V domains shown) VH: EVQLVESGGGLVKPGGSLRLSCAASGFTFSSYSMNWVRQAPGKGLEWVSSISASSSYSDYADSAKGRFTISRDNAKTSLFLQMNSLRAEDTAIYFCARARATGYSSITPYFDIWGQGTLVTVSS VL: QSVVTQTPSVSGAPGQRVTISCTGSSSNIGAGYDVHWYQQLPGTAPKLLIYDNNNRPSGVPDRFSASKSGTSASLAITGLQAEDEADYYCQSYDRNLSGVFGTGTKVTVL",Kd,v3B_Δ18,690 nM
same,Kd,v3B_Δ15,62 nM
same,Kd,v3B_Δ9,87 nM

# From article PMC10516418 (2023)
